Substitutions are numbered along the chain they refer to.
How the values were obtained:
Assay in all cases: BLI
[1] = biological target: chimeric antibody hJAR5 (mouse variable, human constant)
mAb JAR5 (mouse) (mouse) = biological target: mAb JAR5 (mouse) (mouse)
[2] = biological target: T1, Neisseria meningitidis factor H binding protein variant 3.28 (Neisseria meningitidis, fHbp variant …, strain); conditions: both partners purified
T1 construct: also called fHbp v3.28; fHbp variant 3.28
T1 chain: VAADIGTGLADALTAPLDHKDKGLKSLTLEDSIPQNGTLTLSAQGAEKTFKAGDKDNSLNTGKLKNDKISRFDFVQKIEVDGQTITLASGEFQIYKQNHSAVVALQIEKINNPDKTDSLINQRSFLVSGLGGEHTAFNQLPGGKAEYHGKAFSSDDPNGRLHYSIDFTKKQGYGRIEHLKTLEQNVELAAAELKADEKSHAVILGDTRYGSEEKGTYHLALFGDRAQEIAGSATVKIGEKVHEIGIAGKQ

[3] = biological target: T2, factor H binding protein variant 3.28 (Neisseria meningitidis, fHbp variant …); conditions: both partners purified
T2 construct: also called fHbp v3.28; v3.28 Control (0002)
T2 chain: T1 chain

[4] = biological target: T2, factor H binding protein variant 3.28; conditions: both partners purified
[5] = biological target: T3, factor H binding protein variant 1.1 (Neisseria meningitidis serogroup B …, UniProt Q9JXV4); conditions: both partners purified
T3 construct: also called fHbp v1.1; v1.1 Control (0001)

fHbp m000019 [6] = biological target: T4, fHbp m000019 (Neisseria meningitidis, fHbp v1.1 …, point mutant); conditions: both partners purified
T4 construct: also called Round 1 best mutant
T4 chain: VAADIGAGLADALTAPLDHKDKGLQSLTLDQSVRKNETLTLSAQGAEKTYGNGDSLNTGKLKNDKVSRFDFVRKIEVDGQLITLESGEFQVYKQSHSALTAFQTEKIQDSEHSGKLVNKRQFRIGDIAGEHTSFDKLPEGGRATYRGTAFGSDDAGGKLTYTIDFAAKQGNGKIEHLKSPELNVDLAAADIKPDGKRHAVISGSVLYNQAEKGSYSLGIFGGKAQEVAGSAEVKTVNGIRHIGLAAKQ

fHbp mutant 0016 = biological target: T5, fHbp mutant 0016 (Neisseria meningitidis, fHbp v1.1 mutant, point mutant); conditions: both partners purified
T5 chain: T4 chain with V72I, K74Q, E76R, V77S, A155P, G156N

fHbp mutant 0015 = biological target: T6, fHbp mutant 0015 (Neisseria meningitidis, fHbp v1.1 mutant, point mutant); conditions: both partners purified
T6 chain: T4 chain with T38K, T40K, S42A, A155P, G156N

fHbp mutant 0017 = biological target: T7, fHbp mutant 0017 (Neisseria meningitidis, fHbp v1.1 mutant, point mutant); conditions: both partners purified
T7 chain: T4 chain with K106Q, A155P, G156N

fHbp m000019 [7] = biological target: T8, fHbp m000019 (Neisseria meningitidis, fHbp v1.1 …, point mutant); conditions: both partners purified
T8 chain: T4 chain

fHbp mutant 0014 = biological target: T9, fHbp mutant 0014 (Neisseria meningitidis, fHbp v1.1 mutant, point mutant); conditions: both partners purified
T9 chain: T4 chain with T38K, T40K, S42A, V72I, K74Q, K106Q, L116M, N118A, A155P, G156N

fHbp mutant 0012 = biological target: T10, fHbp mutant 0012 (Neisseria meningitidis, fHbp v1.1 mutant, point mutant); conditions: both partners purified
T10 chain: T4 chain with T38K, T40K, S42A, K106Q, L116M, N118A

fHbp mutant 0018 = biological target: T11, fHbp mutant 0018 (Neisseria meningitidis, fHbp v1.1 mutant, point mutant); conditions: both partners purified
T11 chain: T4 chain with L116M, N118A, A155P, G156N

fHbp m002416 = biological target: T12, fHbp m002416 (Neisseria meningitidis, fHbp v3.28/v1.1 …, point mutant); conditions: both partners purified
T12 construct: also called fHbp 2,416; Round 2 best mutant
T12 chain: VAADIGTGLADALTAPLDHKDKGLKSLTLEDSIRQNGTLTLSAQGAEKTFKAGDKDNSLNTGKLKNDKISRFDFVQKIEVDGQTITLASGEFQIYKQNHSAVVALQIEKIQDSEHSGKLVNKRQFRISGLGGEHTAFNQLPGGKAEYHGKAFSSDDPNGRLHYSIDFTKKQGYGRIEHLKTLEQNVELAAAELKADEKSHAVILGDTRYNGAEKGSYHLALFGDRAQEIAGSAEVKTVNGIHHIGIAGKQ

[8] = biological target: T13, Neisseria meningitidis factor H binding protein variant 1.1 (Neisseria meningitidis, UniProt Q9JXV4); conditions: both partners purified
T13 construct: also called fHbp v1.1; fHbp variant 1.1

Molecule: fHbp CC8 (natural protein)
- Kd [1]: 3580 pM
- koff [1]: 0.002 s⁻¹
- kon [1]: 558000 M⁻¹ s⁻¹

Molecule: fHbp CC4 (natural protein)
- Kd [1]: 6920 pM
- koff [1]: 0.00561 s⁻¹
- kon [1]: 811000 M⁻¹ s⁻¹

Molecule: fHbp CC2 (natural protein)
- Kd [1]: 426 pM
- koff [1]: 0.000266 s⁻¹
- kon [1]: 625000 M⁻¹ s⁻¹

Molecule: fHbp CC1 (natural protein)
- Kd [1]: 3860 pM
- koff [1]: 0.00268 s⁻¹
- kon [1]: 693000 M⁻¹ s⁻¹

Molecule: fHbp CC9 (natural protein)
- Kd [1]: 7660 pM
- koff [1]: 0.00118 s⁻¹
- kon [1]: 154000 M⁻¹ s⁻¹

Molecule: fHbp CC3 (natural protein)
- Kd [1]: 1200 pM
- koff [1]: 0.00241 s⁻¹
- kon [1]: 2.01e+06 M⁻¹ s⁻¹

Molecule: fHbp m000006 (from UniProt E6MV22 20-274) (natural protein)
- Kd [1]: 922 pM
- koff [1]: 0.000499 s⁻¹
- kon [1]: 541000 M⁻¹ s⁻¹
- Kd (mAb JAR5 (mouse) (mouse)): < 1 pM
- koff (mAb JAR5 (mouse) (mouse)): < 1e-07 s⁻¹
- kon (mAb JAR5 (mouse) (mouse)): 642000 M⁻¹ s⁻¹

Molecule: fHbp CC5 (natural protein)
- Kd [1]: 6490 pM
- koff [1]: 0.00446 s⁻¹
- kon [1]: 687000 M⁻¹ s⁻¹

B1: human mAb 1A12 (antibody, V domains shown)
VH: EVQLVQSGAELKKPGESLKISCKASGYTFTNYWVVWVRQMPGEGLEWMGSIHPRDSDARYSLSFEGRVTFSVDKSTTTAYLQWSSLKVSDSAIYYCARLSQVSGWSPWVGPWGQGTLVTVSS
VL: DIVMTQSPSSLSASVGDRVTITCRASQSISVSLNWYQQKPGKAPKVLIYAASRLQSGIPSRFSGSGSGSHFTLTISSLQPEDFATYYCQETYSDLMYTFGQGTKVEIK
notes: source: Expi293, transient transfection, purified (MabSelect SuRe, SEC)
- Kd [2]: 7000 to 20000 pM

B2: mAb 1A12 (human) (antibody, V domains shown)
VH: B1 VH
VL: B1 VL
notes: source: Expi293, purified (MabSelect SuRe, SEC); copies: 2 + 2
- Kd [3]: 20400 pM
- Kd [4]: 65900 pM
- Kd [5]: < 1 pM

B3: mouse mAb 12C1 (antibody, V domains shown)
VH: QVQLQESGPELVKPGASVKISCKASGYSFSDYNMSWVKQSNGKSLEWIGIIDPKYGTINYNQKFKGKATLTVDQASSTAYMQLNSLTSEDSAVYYCVRDYYGSSYFDYWGQGTTLTVSS
VL: DIVLTQSPSSIYASLGERVTLTCKASQDIHNYLNWFQQKPGKSPKTLIYRANRLVDGVPSRFSGGGSGQDYSLTISSLEFEDIGIYYCLQYDEFPPTFGGGTRLEIK
notes: also called mouse 12C1 mAb; source: Expi293, transient transfection, purified (MabSelect SuRe, SEC)
- Kd (fHbp m000019 [6]): 37 pM

B4: mAb 12C1 (mouse) (antibody, V domains shown)
VH: B3 VH
VL: B3 VL
notes: as for B2
- Kd (fHbp mutant 0016): < 1 pM
- koff (fHbp mutant 0016): < 1e-07 s⁻¹
- kon (fHbp mutant 0016): 101000 ± 20700 M⁻¹ s⁻¹
- Kd (fHbp mutant 0015): < 1 pM
- koff (fHbp mutant 0015): < 1e-07 s⁻¹
- kon (fHbp mutant 0015): 386000 ± 44100 M⁻¹ s⁻¹
- Kd [5]: < 1 pM
- koff [5]: < 1e-07 s⁻¹
- kon [5]: 796000 ± 15600 M⁻¹ s⁻¹
- Kd (fHbp mutant 0017): < 1 pM
- koff (fHbp mutant 0017): < 1e-07 s⁻¹
- kon (fHbp mutant 0017): 359000 ± 10900 M⁻¹ s⁻¹
- koff (fHbp m000019 [7]): 2.2e-05 s⁻¹
- kon (fHbp m000019 [7]): 585000 ± 6100 M⁻¹ s⁻¹
- Kd (fHbp mutant 0014): < 1 pM
- koff (fHbp mutant 0014): < 1e-07 s⁻¹
- kon (fHbp mutant 0014): 809000 ± 12500 M⁻¹ s⁻¹
- Kd (fHbp mutant 0012): < 1 pM
- koff (fHbp mutant 0012): < 1e-07 s⁻¹
- kon (fHbp mutant 0012): 599000 ± 21400 M⁻¹ s⁻¹
- Kd (fHbp mutant 0018): < 1 pM
- koff (fHbp mutant 0018): < 1e-07 s⁻¹
- kon (fHbp mutant 0018): 397000 ± 13200 M⁻¹ s⁻¹

B5: chimeric antibody h12C1 (antibody, V domains shown)
VH: B3 VH
VL: B3 VL
notes: also called humanized 12C1 mAb; source: Expi293, transient transfection, purified (MabSelect SuRe, SEC)
- Kd (fHbp m002416): 293 pM
- Kd [8]: 100 to 800 pM

B6: mouse mAb JAR5 (antibody, V domains shown)
VH: QVQMQQPGAELVKPGASVKLSCKASGYTFISYWMHWVKQRPGRGLEWIGRIAPDTGIIYYNEKFKNKATLTVDTPSSTAYMQLNSLTSEDSAVYYCARYLKYDGSTYRFDYWGQGTTLTVSS
VL: DIVMTQAAPSVPVTPGESVSISCRSSKSLLHSNGNTYLFWFLQRPGQSPQLLIYRMSNLASGVPDRFSGSGSGTSFTLRISRVEAEDVGVYYCMQHLEYPYTFGGGTKLEIK
notes: also called mouse JAR5 mAb; source: Expi293, transient transfection, purified (MabSelect SuRe, SEC)
- Kd (fHbp m000019 [6]): 254 pM

B7: chimeric antibody hJAR5 (antibody, V domains shown)
VH: B6 VH
VL: B6 VL
- Kd (fHbp m002416): 631 pM

B8: mAb JAR5 (mouse) (antibody, V domains shown)
VH: B6 VH
VL: B6 VL
notes: as for B2
- Kd (fHbp mutant 0015): 209 pM
- Kd (fHbp mutant 0017): 29.7 pM
- Kd (fHbp mutant 0014): 211 pM
- Kd (fHbp mutant 0012): 418 pM
- Kd (fHbp mutant 0018): 404 pM

Source: PMC12319226 (Frontiers in Bioinformatics, 2025)
